# Measured values taken from patent US20250084155A1 (University of Texas, published 2025).
# B1: 77A antibody (clone 77A, murine anti-HSP70 monoclonal antibody) (antibody, V domains shown)
# VH: QIQLVQSGPELKKPGETVKISCKASGYTFTNYGMNWVKQAPGKGLKWMGWINTYTGEPTYADDFKGRFAFSLETSATTAYLQINNLKNEDTATYFCARYDHAMDYWGQGTSVTVSS
# VL: DIVMSQSPSSLAVSAGEKVTMSCKSSQSLLNSGTRKNYLAWYQQKPGQSPKLLIYWTSTRESGVPDRFTGSGSGTDFTLTINSVQAEDLAVYYCKQSYTLYTFGGGTKLEIK
# notes: murine hybridoma antibody; its isotype control is IgG2B; also called mAb 77A
# What was measured:
# [1] = target: T1, ADP-HSP70 (ADP-enriched HSP70, expressed in SF9 cells) (human, UniProt P0DMV8 1-641, limits assumed); experiment: BLI, 77A on sensor, ADP-HSP70 at 75 (µM)
# Description: (§1) HSP70 was expressed in SF9 cells. Affinity chromatography using resins selective for ADP or ATP-binding proteins were used to enrich bulk preparations of the correspondingly bound HSP70 recombinant protein. Protein concentrations, determined after elution, were measured so that equal concentrations could be used in subsequent assays. For BLI-based assays, antibodies and reagents were diluted out onto microwell plates and loaded into the instrument. Antibodies being tested were immobilized onto dip-and-read sensors and then observed for kinetics during binding to ATP or ADP-enriched HSP70. For ELISA, the relevant enriched HSP70 proteins were directly coated onto ELISA plate wells overnight. Test antibodies were then serially diluted across the plate wells, and detected using an appropriate secondary antibody-HRP conjugate. The plates were developed using a TMB substrate, and the O.D. stabilized using an acid stop solution.
# [2] = target: T2, ATP-HSP70 (ATP-enriched HSP70, expressed in SF9 cells) (human, UniProt P0DMV8 1-641, limits assumed); experiment: BLI, 77A on sensor, ATP-HSP70 at 75 (µM)
# Description: as §1
# [3] = target: T1, ADP-HSP70 (ADP-enriched HSP70, …); experiment: BLI, 77A on sensor, ADP-HSP70 at 150 (µM)
# Description: as §1
# [4] = target: T3, HSP70 (human HSP70; the antigen of the binning, humanization and variant binding assays) (human, UniProt P0DMV8 1-641, limits assumed); experiment: BLI, antibody on sensor
# T3 construct: also called hu HSP70
# Outline: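 Antibodies immobilized on biolayer interferometry sensors, baseline taken, then dipped into HSP70 antigen solution or buffer. Binding followed as interference-pattern shift; kinetic constants derived by modeling from the signals and reagent concentrations.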
# [5] = target: T1, ADP-HSP70 (ADP-enriched HSP70, …); experiment: BLI, 77A on sensor, ADP-HSP70 at 300 (µM)
# Description: as §1
# [6] = target: T1, ADP-HSP70 (ADP-enriched HSP70, …); experiment: BLI, 77A on sensor, ADP-HSP70 at 37.5 (µM)
# Description: as §1
# [7] = target: T2, ATP-HSP70 (ATP-enriched HSP70, …); experiment: BLI, 77A on sensor, ATP-HSP70 at 300 (µM)
# Description: as §1
# [8] = target: T4, 504 (N-terminal GFP fusion; GFP is not in the letters); experiment: immunoprecipitation with 77A from extracts of HSP70 KO 293T cells, Western blot with anti-GFP [panel B]
# T4 construct: not shown: N-terminal GFP fusion partner and any linker
# [9] = target: T1, ADP-HSP70 (ADP-enriched HSP70, …); experiment: ELISA, HSP70 coated
# Description: as §1
# (§2) ELISA data, shown in FIG. 18, depicted the same trend, in which 77A had higher maximal absorbance with the ADP-enriched HSP70 than the ATP-enriched HSP70.
# [10] = target: T2, ATP-HSP70 (ATP-enriched HSP70, …); experiment: ELISA, HSP70 coated
# Description: as §1, §2
# [11] = target: T1, ADP-HSP70 (ADP-enriched HSP70, …); experiment: BLI, 77A on sensor
# Description: as §1
# [12] = target: T2, ATP-HSP70 (ATP-enriched HSP70, …); experiment: BLI, 77A on sensor, ATP-HSP70 at 150 (µM)
# Description: as §1
# [13] = target: murine HSP70 (murine, UniProt P17879 1-642); experiment: Octet (BLI)
# [14] = target: T5, human HSP70 made in Sf9 insect cells (human, UniProt P0DMV8 1-641, limits assumed); experiment: Octet (BLI)
# T5 construct: also called HSP70 made in eukaryotic insect Sf9 cells
# [15] = target: human HSP70 made in E. coli (human, UniProt P0DMV8 1-641, limits assumed); experiment: Octet (BLI)
# Sequence of human HSP70 made in E. coli (P0DMV8 whole entry): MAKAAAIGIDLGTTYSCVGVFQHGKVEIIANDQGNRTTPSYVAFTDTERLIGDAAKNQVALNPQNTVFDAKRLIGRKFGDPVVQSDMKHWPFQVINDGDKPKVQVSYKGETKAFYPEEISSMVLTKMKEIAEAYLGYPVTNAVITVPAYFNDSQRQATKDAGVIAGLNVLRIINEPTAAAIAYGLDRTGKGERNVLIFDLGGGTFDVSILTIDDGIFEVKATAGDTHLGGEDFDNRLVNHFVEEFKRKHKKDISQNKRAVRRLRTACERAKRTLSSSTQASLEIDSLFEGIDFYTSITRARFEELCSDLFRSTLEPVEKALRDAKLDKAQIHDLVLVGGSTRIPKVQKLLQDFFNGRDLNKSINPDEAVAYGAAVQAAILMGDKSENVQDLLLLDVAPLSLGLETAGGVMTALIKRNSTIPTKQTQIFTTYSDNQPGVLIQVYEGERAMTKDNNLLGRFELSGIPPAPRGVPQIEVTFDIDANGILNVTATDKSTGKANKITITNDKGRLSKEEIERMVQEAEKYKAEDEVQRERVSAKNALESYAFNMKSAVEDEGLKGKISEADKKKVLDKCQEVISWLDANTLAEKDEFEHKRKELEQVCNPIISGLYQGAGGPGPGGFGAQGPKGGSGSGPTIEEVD
# T3 sequence (P0DMV8 whole entry, change not shown): as the sequence (P0DMV8 whole entry) above
# T2 sequence (P0DMV8 whole entry): as above
# T1 sequence (P0DMV8 whole entry): as above
# Sequence of murine HSP70 (P17879 other isoform, or with tags, fused parts or gaps): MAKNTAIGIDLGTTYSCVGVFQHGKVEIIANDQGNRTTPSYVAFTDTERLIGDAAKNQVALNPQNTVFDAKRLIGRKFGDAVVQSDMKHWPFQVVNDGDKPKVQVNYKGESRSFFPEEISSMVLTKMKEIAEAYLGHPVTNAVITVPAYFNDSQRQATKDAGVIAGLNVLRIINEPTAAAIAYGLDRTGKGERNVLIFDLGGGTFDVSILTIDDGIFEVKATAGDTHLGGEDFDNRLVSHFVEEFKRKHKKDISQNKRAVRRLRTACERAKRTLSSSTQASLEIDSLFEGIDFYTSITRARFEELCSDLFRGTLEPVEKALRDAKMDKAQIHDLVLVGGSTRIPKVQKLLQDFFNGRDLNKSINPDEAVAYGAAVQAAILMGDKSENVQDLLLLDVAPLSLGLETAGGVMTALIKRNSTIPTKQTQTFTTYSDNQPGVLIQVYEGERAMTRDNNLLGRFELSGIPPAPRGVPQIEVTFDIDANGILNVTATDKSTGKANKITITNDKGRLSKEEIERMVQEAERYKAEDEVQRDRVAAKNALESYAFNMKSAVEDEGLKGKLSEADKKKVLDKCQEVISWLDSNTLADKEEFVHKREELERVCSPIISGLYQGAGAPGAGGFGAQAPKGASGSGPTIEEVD
# T5 sequence (P0DMV8 whole entry): as the sequence (P0DMV8 whole entry) above
binder,measurement,setting,value
B1,Kd,[1],5.42 nM
same,koff,[1],0.000292 s⁻¹
same,kon,[1],53800 M⁻¹ s⁻¹
same,Kd,[2],20.2 nM
same,koff,[2],0.00038 s⁻¹
same,kon,[2],18800 M⁻¹ s⁻¹
same,Kd,[3],5.42 nM
same,koff,[3],0.000292 s⁻¹
same,kon,[3],53800 M⁻¹ s⁻¹
same,Kd,[4],1.2 nM
same,koff,[4],8.08e-05 s⁻¹
same,kon,[4],67400 M⁻¹ s⁻¹
same,Kd,[5],5.42 nM
same,koff,[5],0.000292 s⁻¹
same,kon,[5],53800 M⁻¹ s⁻¹
same,Kd,[6],5.42 nM
same,koff,[6],0.000292 s⁻¹
same,kon,[6],53800 M⁻¹ s⁻¹
same,Kd,[7],20.2 nM
same,koff,[7],0.00038 s⁻¹
same,kon,[7],18800 M⁻¹ s⁻¹
same,binding result,[8],no binding
same,EC50,[9],0.737 nM
same,EC50,[10],1.77 nM
same,fold greater affinity (KD) than ATP-enriched HSP70,[11],≥ 4 fold
same,Kd,[12],20.2 nM
same,koff,[12],0.00038 s⁻¹
same,kon,[12],18800 M⁻¹ s⁻¹
same,Kd,[13],988 nM
same,Kd,[14],< 0.001 nM
same,Kd,[15],0.85 nM
